The target in test [1] is T1, human TfR ectodomain fused to a mouse IgG1 Fc fragment (human, UniProt P02786 89-760).
T1 construct: extracellular domain; ectodomain fused to the N-terminal end of the Fc, made in-house; not shown: mouse IgG1 Fc fragment
Briefly: SPR, at equilibrium. The procedure, abridged: (§1)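 TfR–mouse Fc fusions, produced in-house, captured on HC 1500M or CM5 chips either directly or via immobilized anti-mouse IgG. VHHs injected in single-cycle or multiple-cycle kinetic mode on Biacore T200.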
Background: Surface plasmon resonance follows binding to a sensor surface in real time, without labels.

In test [2] the target is T2, mouse transferrin receptor (mTfR) fused to EGFP, on CHO cells (mouse, UniProt Q62351 1-763).
T2 construct: whole, on cells; also called mouse TfR; CHO-mTfR-EGFP; not shown: EGFP
T2 sequence (Q62351 whole entry, the tested form may be a part): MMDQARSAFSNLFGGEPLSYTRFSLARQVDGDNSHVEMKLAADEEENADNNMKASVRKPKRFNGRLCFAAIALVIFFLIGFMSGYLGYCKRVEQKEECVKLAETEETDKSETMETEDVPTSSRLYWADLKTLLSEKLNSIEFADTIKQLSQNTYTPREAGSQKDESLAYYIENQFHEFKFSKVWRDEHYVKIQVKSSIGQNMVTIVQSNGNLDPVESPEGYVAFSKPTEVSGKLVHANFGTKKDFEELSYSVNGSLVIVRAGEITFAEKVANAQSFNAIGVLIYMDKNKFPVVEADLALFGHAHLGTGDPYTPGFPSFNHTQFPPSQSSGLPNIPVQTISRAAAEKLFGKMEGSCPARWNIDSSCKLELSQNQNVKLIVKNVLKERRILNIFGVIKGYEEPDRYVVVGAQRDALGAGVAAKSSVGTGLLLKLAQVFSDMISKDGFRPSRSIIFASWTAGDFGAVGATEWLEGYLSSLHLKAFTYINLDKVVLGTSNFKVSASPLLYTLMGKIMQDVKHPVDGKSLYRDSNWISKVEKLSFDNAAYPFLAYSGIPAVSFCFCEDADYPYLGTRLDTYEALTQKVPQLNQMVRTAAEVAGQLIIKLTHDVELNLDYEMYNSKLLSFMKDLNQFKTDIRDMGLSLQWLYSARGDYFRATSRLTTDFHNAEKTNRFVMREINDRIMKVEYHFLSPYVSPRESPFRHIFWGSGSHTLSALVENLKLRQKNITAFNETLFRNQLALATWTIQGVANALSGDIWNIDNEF
Description: apparent Kd, flow cytometry, CHO cells. As for the experimental part: (§2) All experiments were performed in 96 well plates using 2×10⁵ cells/well, at 4° C. with shaking. CHO cell lines stably expressing the hTfR or the mTfR fused to EGFP or CHO WT cells were saturated with PBS/BSA 2% solution during 30 min to avoid non-specific binding, followed by incubation with purified VHHs at concentrations ranging from 50 μM to 5 μM for 1 hr. After one wash in PBS/BSA 2%, cells were incubated for 1 hr with an anti-6His tag antibody (mouse), washed twice with PBS/BSA 2%, and incubated for 45 min with an Alexa647-conjugated anti-mouse secondary antibody. After two last washes in PBS/BSA 2%, cells were fixed by incubation for 15 min with PBS/PFA 2%, washed once with PBS and finally resuspended in PBS and stored at 4° C. Fluorescence levels were assessed using an Attune NxT Flow Cytometer (Thermo Fisher Scientific). […] No labeling of the CHO WT control cells was detected with all the tested VHHs (not shown). The VHH K_{d app} were calculated using GraphPad Prism software (FIG. 11-B; 12-B).

Test [3] has as its target T3, human transferrin receptor (hTfR) fused to EGFP, on CHO cells (human, UniProt P02786 1-760).
T3 construct: whole, on cells; also called human TfR; CHO-hTfR-EGFP; not shown: EGFP from pEGFP-C1 vector, fused to the N-terminal (intracellular) end of hTfR
Briefly: flow cytometry on CHO-hTfR-EGFP cells, 1 hr at 4 C, anti-6His + Alexa647 anti-mouse; apparent Kd, mean ± SEM of 3 experiments. As for the experimental part: (§3) (A) CHO-hTfR-EGFP and CHO-mTfR-EGFP cells were incubated 1 hr at 4° C. with various concentrations of VHHs, detected with a mouse anti-6His (1/1000) and an Alexa647-conjugated anti-mouse secondary antibody (1/400). Measurements were performed using flow cytometry. The ratio of fluorescence intensity for each point was normalized with the corresponding EGFP signal (receptor expression) and gave rise to the arbitrary unit. Data are presented as mean±SEM of 3 independent experiments. (B) Characteristics of VHHs: Molecular Weight (Da); Theoretical pI; Apparent Kd on human TfR (nM); Apparent Kd on mouse TfR (nM). Data are presented as mean±SEM of 3 independent experiments. NB: no binding, LB: low binding.
All experiments were performed in 96 well plates using 2×10⁵ cells/well, at 4° C. with shaking. CHO cell lines stably expressing the hTfR or the mTfR fused to EGFP or CHO WT cells were saturated with PBS/BSA 2% solution during 30 min to avoid non-specific binding, followed by incubation with purified VHHs at concentrations ranging from 50 μM to 5 μM for 1 hr. After one wash in PBS/BSA 2%, cells were incubated for 1 hr with an anti-6His tag antibody (mouse), washed twice with PBS/BSA 2%, and incubated for 45 min with an Alexa647-conjugated anti-mouse secondary antibody. […] Fluorescence levels were assessed using an Attune NxT Flow Cytometer (Thermo Fisher Scientific).
A general note: A flow cytometer gives signals particle by particle.

Test [4] deals with T1, human TfR ectodomain fused to a mouse …. Briefly: SPR, kinetic. The procedure, abridged:
as §1

Test [5] concerns the target T3, human transferrin receptor (hTfR) fused …. Description: flow cytometry on CHO-hTfR-EGFP cells, 1 hr at 4 C, anti-6His + Alexa647 anti-mouse; nonlinear fit. The method, then: CHO-hTfR-EGFP cells were incubated 1 hr at 4° C. with various concentrations of the indicated compounds. Detection of VHHs was performed using a primary mouse anti-6His (1/1000) and an Alexa647-conjugated anti-mouse secondary antibody (1/400). Measurements of cell-surface signal associated with VHH were performed using flow cytometry. The results are expressed as the ratio of Alexa647-associated fluorescence intensity of test compounds to that of background fluorescence.

For test [6] the target is unchanged. Briefly: flow cytometry on CHO-hTfR-EGFP cells, 1 hr at 4 C, anti-6His + Alexa647 anti-mouse; apparent Kd, mean ± SEM of 3 experiments. As for the experimental part:
(§4) (A) CHO-hTfR-EGFP and CHO-mTfR-EGFP cells were incubated 1 hr at 4° C. with various concentrations of VHHs, detected with a mouse anti-6His (1/1000) and an Alexa647-conjugated anti-mouse secondary antibody (1/400). Measurements were performed using flow cytometry.
as §2
The source holds these as a separate data set.

The target is the same in test [7]. Briefly: apparent Kd, flow cytometry, CHO cells. As for the experimental part: as §2
Test [8] deals with T2, mouse transferrin receptor (mTfR) fused …. Briefly: flow cytometry on CHO-mTfR-EGFP cells, 1 hr at 4 C, anti-6His + Alexa647 anti-mouse; apparent Kd, mean ± SEM of 3 experiments. The method, then: as §4, §2
For test [9] the target is unchanged. Briefly: flow cytometry on CHO-mTfR-EGFP cells, 1 hr at 4 C, Alexa647 anti-mouse; apparent Kd, mean ± SEM of 3 experiments. As for the experimental part: as §3, with “FIGS. 13A-13B: Apparent Kd determination of 13C3-HC-VHH fusions on hTfR- and mTfR-expressing CHO cell lines. (A)” for “(A)”, “13C3 fusions and” for “VHHs,”, “with” for “with a mouse anti-6His (1/1000) and”, “anti-mouse” for “anti-mouse secondary”, “13C3 fusions:” for “VHHs:”, “(Da);” for “(Da); Theoretical pI;”
All experiments were performed in 96 well plates using 2×10⁵ cells/well, at 4° C. with shaking. CHO cell lines stably expressing the hTfR or the mTfR fused to EGFP or CHO WT cells were saturated with PBS/BSA 2% solution during 30 min to avoid non-specific binding, followed by incubation with purified VHHs at concentrations ranging from 50 μM to 5 μM for 1 hr. After one wash in PBS/BSA 2%, cells were incubated for 1 hr with an anti-6His tag antibody (mouse), washed twice with PBS/BSA 2%, and incubated for 45 min with an Alexa647-conjugated anti-mouse secondary antibody. After two last washes in PBS/BSA 2%, cells were fixed by incubation for 15 min with PBS/PFA 2%, washed once with PBS and finally resuspended in PBS and stored at 4° C. Fluorescence levels were assessed using an Attune NxT Flow Cytometer (Thermo Fisher Scientific).

For test [10] the target is unchanged. Description: flow cytometry, CHO cells.
Test [11] shares this target. Description: cell-based flow cytometry assay on mTfR-expressing cells (as in Example XI); Kd/app.
For test [12] the target is unchanged. Description: cell-based flow cytometry assay on mTfR-expressing cells (as in Example XI).
Test [13] shares this target. Description: apparent Kd, cell-based assay.

Where a chain is given by its changes, count along the chain named.

We go through 8 molecules from US20230414780A1 (VECT HORUS, published 2023).

T3 sequence (P02786 whole entry, the tested form may be a part): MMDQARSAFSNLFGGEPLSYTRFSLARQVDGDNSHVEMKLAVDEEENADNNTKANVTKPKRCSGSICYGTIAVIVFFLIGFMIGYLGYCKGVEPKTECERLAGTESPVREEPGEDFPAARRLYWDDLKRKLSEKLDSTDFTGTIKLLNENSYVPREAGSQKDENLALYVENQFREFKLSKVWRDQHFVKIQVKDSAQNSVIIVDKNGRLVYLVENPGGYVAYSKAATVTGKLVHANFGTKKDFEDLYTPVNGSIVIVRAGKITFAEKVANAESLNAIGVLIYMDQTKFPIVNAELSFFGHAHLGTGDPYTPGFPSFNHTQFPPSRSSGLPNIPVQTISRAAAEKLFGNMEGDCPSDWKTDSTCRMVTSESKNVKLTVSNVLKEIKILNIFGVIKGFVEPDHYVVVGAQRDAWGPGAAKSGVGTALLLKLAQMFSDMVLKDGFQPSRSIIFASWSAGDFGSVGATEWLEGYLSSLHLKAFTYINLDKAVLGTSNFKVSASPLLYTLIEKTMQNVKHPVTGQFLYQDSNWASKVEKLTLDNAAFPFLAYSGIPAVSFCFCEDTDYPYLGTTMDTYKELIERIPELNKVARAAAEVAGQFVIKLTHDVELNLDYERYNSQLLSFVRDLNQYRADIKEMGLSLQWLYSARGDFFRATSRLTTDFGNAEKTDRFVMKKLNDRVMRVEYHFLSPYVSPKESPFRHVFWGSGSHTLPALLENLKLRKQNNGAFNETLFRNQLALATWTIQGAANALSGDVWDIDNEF
T1 sequence (P02786 89-760): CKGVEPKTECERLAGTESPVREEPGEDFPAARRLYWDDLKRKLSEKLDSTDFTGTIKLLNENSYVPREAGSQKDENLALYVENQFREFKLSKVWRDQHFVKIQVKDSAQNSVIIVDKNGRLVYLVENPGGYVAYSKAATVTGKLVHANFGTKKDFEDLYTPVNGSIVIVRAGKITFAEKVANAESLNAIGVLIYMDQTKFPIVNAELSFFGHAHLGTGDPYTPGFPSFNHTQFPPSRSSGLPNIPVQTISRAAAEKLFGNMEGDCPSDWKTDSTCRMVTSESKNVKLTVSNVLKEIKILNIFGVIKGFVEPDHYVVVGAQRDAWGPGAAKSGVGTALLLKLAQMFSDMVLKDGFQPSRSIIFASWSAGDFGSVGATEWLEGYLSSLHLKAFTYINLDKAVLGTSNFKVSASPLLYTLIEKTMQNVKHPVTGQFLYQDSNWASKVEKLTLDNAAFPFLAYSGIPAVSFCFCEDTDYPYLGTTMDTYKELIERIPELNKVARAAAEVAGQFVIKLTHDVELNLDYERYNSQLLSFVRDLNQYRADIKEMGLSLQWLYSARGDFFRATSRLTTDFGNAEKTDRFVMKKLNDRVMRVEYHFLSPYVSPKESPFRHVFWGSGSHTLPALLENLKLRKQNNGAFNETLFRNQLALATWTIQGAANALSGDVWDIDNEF

B1: VHH A5 (C5^V5) (VHH)
VHH: EVQLVESGGGVVQPGGSLKLSCVASGTDFSINFIRWYRQAPGKQREFVAGFTATGNTNYADSMKGRFTISRDNTKNAVYLQIDSLKPEDTAVYYCAMLDKWGQGTQVTVSS
On to B1, for which the Kd in test [1] worked out at 180 nM; in test [2] it was 604 nM; in [3] it was 25 nM; in test [4] it was 154 nM. This molecule came in with a koff in [4] of 0.0509 s⁻¹. The molecule further yielded a kon in [4] of 332000 M⁻¹ s⁻¹.

B2: VHH A-NODAGA bioconjugate (VHH, not shown: small tags and cut ends)
VHH: B1 VHH with A96Y
modifications: NODAGA-BCN clicked to an azido linker on the Gln of the C-terminal Q-tag
B2: the Kd in [5] was determined as 7.72 nM.

B3: VHH A17 (C5^V17) (VHH)
VHH: B1 VHH with A96Y, L98I
As for B3, the Kd is 5.3 nM in [6], 3 to 4 nM in test [7] and 208 nM in test [8].

B4: VHH A19 (C5^V19) (VHH)
VHH: B1 VHH with A96Y, D99E
Turning to B4, the Kd in [1] was 7.13 nM; in test [6] it was 9.2 nM; in test [8], 210 nM; in test [4], 22.3 nM. In addition, the koff in test [4] was 0.0097 s⁻¹. The same molecule gave a kon in test [4] of 426000 M⁻¹ s⁻¹.

B5: 13C3-HC-VHH A1 (antibody)
heavy: QVQLQQSGPELVRPGVSVKISCKGSGYTFTDYAMHWVKQSHAKSLEWIGVISTKYGKTNYNQKFKGKATMTVDKSSSTAYMELARLTSEDSAIYYCARGDDGYSWGQGTSVTVSSAKTTPPSVYPLAPGSAAQTNSMVTLGCLVKGYFPEPVTVTWNSGSLSSGVHTFPAVLQSDLYTLSSSVTVPSSTWPSETVTCNVAHPASSTKVDKKIVPRDCGCKPCICTVPEVSSVFIFPPKPKDVLTITLTPKVTCVVVDISKDDPEVQFSWFVDDVEVHTAQTQPREEQFNSTFRSVSELPIMHQDWLNGKEFKCRVNSAAFPAPIEKTISKTKGRPKAPQVYTIPPPKEQMAKDKVSLTCMITDFFPEDITVEWQWNGQPAENYKNTQPIMDTDGSYFVYSKLNVQKSNWEAGNTFTCSVLHEGLHNHHTEKSLSHSPGGGGGMAEVQLVESGGGVVQPGGSLKLSCVASGADFSINFIRWYRQAPGKQREFVAGFTATGNTNYADSMKGRFTISRDNTKNAVYLQIDSLKPEDTAVYYCYMLDKWGQGTQVTVSSAAA
light: DVVMTQTPLSLPVSLGDQASISCRSGQSLVHSNGNTYLHWYLQKPGQSPKLLIYTVSNRFSGVPDRFSGSGSGSDFTLKISRVEAEDLGVYFCSQNTFVPWTFGGGTKLEIKRADAAPTVSIFPPSSEQLTSGGASVVCFLNNFYPKDINVKWKIDGSERQNGVLNSWTDQDSKDSTYSMSSTLTLTKDEYERHNSYTCEATHKTSTSPIVKSFNRNEC
In the case of B5, the Kd in [9] turned out to be 9.4 nM. Besides, the “Bmax, fold lower than 13C3-HC-VHH A” value in [10] was determined as 2 fold.

B6: 13C3-HC-C5h16 (antibody)
heavy: QVQLQQSGPELVRPGVSVKISCKGSGYTFTDYAMHWVKQSHAKSLEWIGVISTKYGKTNYNQKFKGKATMTVDKSSSTAYMELARLTSEDSAIYYCARGDDGYSWGQGTSVTVSSAKTTPPSVYPLAPGSAAQTNSMVTLGCLVKGYFPEPVTVTWNSGSLSSGVHTFPAVLQSDLYTLSSSVTVPSSTWPSETVTCNVAHPASSTKVDKKIVPRDCGCKPCICTVPEVSSVFIFPPKPKDVLTITLTPKVTCVVVDISKDDPEVQFSWFVDDVEVHTAQTQPREEQFNSTFRSVSELPIMHQDWLNGKEFKCRVNSAAFPAPIEKTISKTKGRPKAPQVYTIPPPKEQMAKDKVSLTCMITDFFPEDITVEWQWNGQPAENYKNTQPIMDTDGSYFVYSKLNVQKSNWEAGNTFTCSVLHEGLHNHHTEKSLSHSPGGGGGMAEVQLVESGGGLVQPGGSLRLSCAASGTDFSINFIRWYRQAPGKGLEFVAGFTATGNTNYADSVKGRFTISRDNSKNTLYLQMNSLRAEDTAVYYCYMLDKWGQGTLVTVSSAAA
light: B5 light
With B6, the Kd in test [11] stood at 19.6 nM. Moreover, in [12], the Bmax was 381 RFI. In addition, the “binding potential, fold lower than 13C3-HC-C5h20” value in [10] was ~3 fold.

B7: B8 h1-NT(8-13) (VHH)
VHH: EVQLVESGGGVVQPGGSLRLSCAASGEIFSINFMRWYRQAPGKGLEWVAGFTRDGSTNYPDSVKGRFTISRDNAKNTVYLQMNSLRPEDTAVYYCYMLDTWGQGTQVTVSS
For the molecule B7, the Kd in test [13] worked out at 2.8 nM.

B8: B8V1-NT(8-13) (VHH)
VHH: B7 VHH with S25D, G44Q, L45R, V63A, M82I, N83D, R86K
With B8, in test [13], the Kd stood at 8.3 nM.

The koff is the rate constant with which the complex falls apart. A lower koff goes with slow dissociation. What is called kon is the rate constant with which the complex forms. A higher kon goes with fast association.
